Experimental data taken from patent US20240139242A1.

Biological target: OT-I T cell receptor on OTi target T cells (splenocytes from OT-I mouse) (mouse)
Experiment: cell-based or functional assay

Q: “FITC-conjugated H2Kb-SIINFEKL tetramer (from UniProt P01901 22-305) (peptide-MHC)” was tested. Which cytotoxicity of CD8 CAR T cells on OTi cells did it give?
A: > 50%
